Experimental findings from patent publication CN116410305A (ATTOGEN BIOMEDICAL SUZHOU INC LTD, dated 2023) are described below.

The target of this assay is T1, 宫颈癌组织/细胞中内源的HPV16 E6蛋白 (HPV16, UniProt P03126 1-158).
T1 construct: Target detected by IHC or ICC in fixed tissue or cells; also called HPV16 E6致癌蛋白; HPV16 E6癌蛋白
The assay is described as follows: IHC on FFPE cervical cancer tissue array, clone supernatant.

T1 sequence (P03126 whole entry): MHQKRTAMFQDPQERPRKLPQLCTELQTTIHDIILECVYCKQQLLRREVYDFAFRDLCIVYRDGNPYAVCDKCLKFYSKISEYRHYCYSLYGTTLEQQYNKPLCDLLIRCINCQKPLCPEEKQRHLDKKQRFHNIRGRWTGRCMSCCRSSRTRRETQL

B1: 抗HPV16 E6单克隆抗体A3E1 (antibody, V domains shown)
VH: QSLEESGGGLVTPGGTLTLTCTASGIDFSANYWIYWVRQTPGKGLEWIASIFTSDGETHYATWAKGRFTISKTSSTTVTLQMTSLTAADTATYFCATGGALWGPGTLVTVSS
VL: DIVMTQTPASVEAAVGGTVTIKCQASEDIENYLAWYQQKPGQPPKRLIYKASTLASGVPSRFKGSGSGTDFTLTISDLECADAATYYCQSNYYNFGSNYGSFAFGGGTEVVVK
notes: Rabbit monoclonal IgG from single B cell cloning, tested as B cell clone supernatant and as recombinant IgG from CHO cells; also called 克隆上清A3E1; 抗体克隆A3E1
On to B1, for which the binding result is on record as “binds”.
